In patent US20260225001A1, “COMPOSITIONS AND METHODS FOR PURIFYING BIOLOGICAL FLUIDS” (North Carolina State University, priority 2023, published 2026):
Blank lines part the entries; values can stand above or below the molecule they belong to.

Experiments:
Pichia pastoris HCPs = assay: Contribution of individual PichiaGuard peptides to HCP binding (flow-through, BCA, proteomics, IgG incubation); conditions: for coverage of HCPs: FIG. 13, by theoretical isoelectric point; for number of HCPs bound (HCP binding density): FIG. 13, proteomics; for number of HCP species bound compared with PichiaGuard: FIGS. 14A-14H
Excerpt: Within HCP binding, it was observed that sequences 5 through 8 display the highest capacity for HCPs, followed by 4, 3 and 1. The same sequences in order also show low to high IgG binding potential, generating a qualitative understanding of binding capacity (Y-axis) and binding selectivity (HCP/IgG).
The color spectrum diverging from blue to red indicates an increasing number of HCPs with specific molecular weight (Y-axis) and theoretical isoelectric points (X-axis) captured by each peptide.
FIGS. 14A-14H compare the total number of identified HCPs bound by individual peptides with that of the PichiaGuard ensemble.
Analysis of PichiaGuard Peptide Contributions to HCP Binding: Contributions of individual peptides comprising PichiaGuard were discerned in terms of their binding to Pichia pastoris HCPs “by-sequence”. These studies comprised of the flow-through purification of null Pichia culture fluids (no recombinant protein), subsequently purified using chromatographic columns packed with individual peptides. The fluids were purified at a 1-minute residence time and flow-through fractions were collected across time for the identification of bound and unbound HCPs (see chromatograms in FIG. 11A). These fractions were analyzed using total protein quantification assay (BCA) and compared with that of the load sample to compute HCP log-reduction value for each individual sequence (FIG. 11B, left). Simultaneously, 25 μL of each peptide was incubated with a range of IgG concentrations (0.1-30 mg/mL resin) overnight to understand their binding propensities to the competitor molecules under non-competitive conditions. Protein content in the supernatant was estimated and compared to the initial concentrations to observe IgG binding (FIG. 11B, right). All flow-through fractions were analyzed through the proteomics workflow (as described further herein) to identify unbound HCPs and overall, correlate peptide and HCP properties. Briefly, label free quantification was performed to identify HCPs within each flow-through fraction and compared to the feed sample used within the experiment. The data was first grouped as a function of time for each peptide and data filters were applied based on the abundance ratio to label bound and unbound HCPs, at different confidence levels based on the number of fractions they were identified in. Concurrently, the “Peptides” package within RStudio was utilized to calculate sequence-based properties of each HCP such as polarity, H-bonding, hydrophobicity and charge.

[1] = target: K. phaffii host cell proteins (HCPs); assay: flow-through chromatography, acetate buffer, RT 1 min, up to 40 CVs
[2] = target: K. phaffii host cell proteins (HCPs); assay: flow-through chromatography, acetate buffer, RT 1 min, up to 10 CVs
[3] = target: K. phaffii host cell proteins (HCPs); assay: flow-through chromatography, 30th CV mark
[4] = target: K. phaffii host cell proteins (HCPs); assay: flow-through affinity chromatography
[5] = target: K. phaffii host cell proteins (HCPs); assay: flow-through purification of scFv perfusate, Pichia pastoris HCP ELISA; 150 CV load
[6] = target: K. phaffii host cell proteins (HCPs); assay: flow-through chromatography, around the 30th CV
[7] = target: K. phaffii host cell proteins (HCPs); assay: flow-through chromatography, DOE study, phosphate buffer
[8] = target: K. phaffii host cell proteins (HCPs); assay: flow-through chromatography, DOE study, acetate buffer
[9] = target: K. phaffii host cell proteins (HCPs); assay: flow-through chromatography, acetate buffer, RT 1 min, up to 20 CVs
[10] = target: K. phaffii host cell proteins (HCPs); assay: flow-through chromatography, acetate buffer, RT 1 min, up to 100 CVs
[11] = target: K. phaffii host cell proteins (HCPs); assay: flow-through chromatography of ScFv13R4 harvest, 20 mM sodium acetate pH 5.7, RT 1 min; protein loading 7.50 g/L resin
[12] = target: K. phaffii host cell proteins (HCPs); assay: static binding, Langmuir isotherm fit; acetate buffer pH 5.7
[13] = target: K. phaffii host cell proteins (HCPs); assay: flow-through chromatography of ScFv13R4 harvest, 20 mM sodium acetate pH 5.7, RT 1 min; protein loading 14.40 g/L resin
[14] = target: K. phaffii host cell proteins (HCPs); assay: flow-through chromatography of mAb harvest, acetate buffer, load up to 15 mg/mL
[15] = target: K. phaffii host cell proteins (HCPs); assay: static binding, Langmuir isotherm fit; phosphate buffer pH 7.1-7.2
[16] = target: K. phaffii host cell proteins (HCPs); assay: flow-through chromatography of ScFv13R4 harvest, 20 mM sodium acetate pH 5.7, RT 1 min; protein loading 6.30 g/L resin
[17] = target: K. phaffii host cell proteins (HCPs); assay: static binding, Langmuir isotherm fit, HCPs treated as a single species; acetate buffer pH 5.7
[18] = target: K. phaffii host cell proteins (HCPs); assay: flow-through chromatography of ScFv13R4 harvest, 20 mM sodium acetate pH 5.7, RT 1 min; protein loading 9.30 g/L resin
[19] = target: K. phaffii host cell proteins (HCPs); assay: flow-through chromatography of ScFv13R4 harvest, nanoLC-MS/MS
[20] = target: K. phaffii host cell proteins (HCPs); assay: flow-through chromatography of ScFv13R4 harvest, 20 mM sodium acetate pH 5.7, RT 1 min; protein loading 3.90 g/L resin
[21] = target: K. phaffii host cell proteins (HCPs); assay: flow-through chromatography of ScFv13R4 harvest, 20 mM sodium acetate pH 5.7, RT 1 min; protein loading 2.10 g/L resin
[22] = target: K. phaffii host cell proteins (HCPs); assay: static binding, Langmuir isotherm fit, HCPs treated as a single species; phosphate buffer pH 7.1-7.2; pH 7.15
[23] = target: K. phaffii host cell proteins (HCPs); assay: flow-through chromatography, RT 1 min
[24] = target: K. phaffii host cell proteins (HCPs); assay: flow-through chromatography, DOE study
[25] = target: K. phaffii host cell proteins (HCPs); assay: flow-through chromatography of ScFv13R4 harvest, 20 mM sodium acetate pH 5.7, RT 1 min; protein loading 5.10 g/L resin

Molecule: YHKH [Peptide 1]
coverage of HCPs (Pichia pastoris HCPs): broad coverage of HCPs with varying pI
number of HCPs bound (HCP binding density) (Pichia pastoris HCPs): High HCP binding densities
number of HCP species bound compared with PichiaGuard (Pichia pastoris HCPs): binding most species

Molecule: CHO LigaGuard™ resin
cumulative HCP LRV [1]: 0.45 to 0.55 LRV
cumulative HCP LRV [2]: 1 to 1.5 LRV

Molecule: RYWK [Peptide 2]
selectivity (HCP vs IgG binding) (Pichia pastoris HCPs; FIG. 14I, non-competitive conditions): poor selectivity

Molecule: EWAK [Peptide 4]
coverage of HCPs (Pichia pastoris HCPs): broad coverage of HCPs with varying pI
number of HCPs bound (HCP binding density) (Pichia pastoris HCPs): High HCP binding densities
number of HCP species bound compared with PichiaGuard (Pichia pastoris HCPs): binding most species

B1: PichiaGuard (peptide)
peptide 1: YHKH
peptide 2: RYWK
peptide 3: RWYQ
peptide 4: EWAK
peptide 5: QEKK
peptide 6: WYKK
peptide 7: VWHH
peptide 8: RYWV
modifications: bound to a chromatographic resin; which Toyopearl base is not said at these places
load at saturation as % of Qmax [3]: 75 % of Qmax
load ratio at saturation (g of HCPs per L of resin) [3]: 18
% reduction of HCPs and hcDNA [4]: < 99%
HCP removal (logs) [5]: 1.7 logs
cumulative LRV at plateau [6]: 1 LRV
fractional LRV [6]: < 0.5 LRV

B2: PichiaGuard-TP50F resin (peptide)
peptide 1: YHKH
peptide 2: RYWK
peptide 3: RWYQ
peptide 4: EWAK
peptide 5: QEKK
peptide 6: WYKK
peptide 7: VWHH
peptide 8: RYWV
modifications: bound to aminated Toyopearl HW-50F resin
HCP LRV [7]: 0.8 to 1 LRV
HCP LRV [8]: 0.7 to 0.9 LRV

B3: PichiaGuard-TP650M resin (peptide)
peptide 1: YHKH
peptide 2: RYWK
peptide 3: RWYQ
peptide 4: EWAK
peptide 5: QEKK
peptide 6: WYKK
peptide 7: VWHH
peptide 8: RYWV
modifications: bound to Toyopearl AF-Amino-650M resin
cumulative HCP LRV [9]: 1.5 to 2 LRV
cumulative HCP LRV [10]: 1.3 LRV
cumulative HCP LRV [11]: 1.34 LRV
Qmax (maximum binding capacity) (mg HCP per mL resin) [12]: 25.4
cumulative HCP LRV [13]: 1.01 LRV
overall HCP LRV [14]: 1.15 LRV
Qmax (maximum binding capacity) (mg HCP per mL resin) [15]: 18.3
cumulative HCP LRV [16]: 1.55 LRV
Kd [17]: 17.5 µM
cumulative HCP LRV [18]: 1.14 LRV
% of HCPs completely removed [19]: > 84%
% of HCPs partially cleared [19]: 15%
cumulative HCP LRV [20]: 2.55 LRV
cumulative HCP LRV [21]: 3 LRV
Kd [22]: 30 µM
fold change of HCP clearance activity, phosphate buffer against acetate buffer [23]: 10 fold lower
cumulative HCP LRV [2]: > 2 LRV
HCP LRV [24]: 3 LRV
cumulative HCP LRV [25]: 1.92 LRV

The remaining lines, values ahead:

coverage of HCPs (Pichia pastoris HCPs): broad coverage of HCPs with varying pI
number of HCP species bound compared with PichiaGuard (Pichia pastoris HCPs): binding most species
Molecule: VWHH [Peptide 7]

coverage of HCPs (Pichia pastoris HCPs): broad coverage of HCPs with varying pI
Molecule: QEKK [Peptide 5]

number of HCP species bound compared with PichiaGuard (Pichia pastoris HCPs): binding most species
Molecule: WYKK [Peptide 6]

number of HCPs bound (HCP binding density) (Pichia pastoris HCPs): least number of HCPs
Molecule: RYWV [Peptide 8]
